Test results taken from US8309523 (VIB VZW, dated 2012).

T1: p76 fragment of MALT1 (Avi-tagged expression construct) (human, UniProt Q9UDY8 150-824, Avi-tag biotinylated in vivo by co-expressed BirA)
T1 construct: domain: p76 cleavage fragment; Lacks the N-terminal death domain; also called MALT1 p76; 76 kDa C-terminal fragment
T1 sequence (looked up): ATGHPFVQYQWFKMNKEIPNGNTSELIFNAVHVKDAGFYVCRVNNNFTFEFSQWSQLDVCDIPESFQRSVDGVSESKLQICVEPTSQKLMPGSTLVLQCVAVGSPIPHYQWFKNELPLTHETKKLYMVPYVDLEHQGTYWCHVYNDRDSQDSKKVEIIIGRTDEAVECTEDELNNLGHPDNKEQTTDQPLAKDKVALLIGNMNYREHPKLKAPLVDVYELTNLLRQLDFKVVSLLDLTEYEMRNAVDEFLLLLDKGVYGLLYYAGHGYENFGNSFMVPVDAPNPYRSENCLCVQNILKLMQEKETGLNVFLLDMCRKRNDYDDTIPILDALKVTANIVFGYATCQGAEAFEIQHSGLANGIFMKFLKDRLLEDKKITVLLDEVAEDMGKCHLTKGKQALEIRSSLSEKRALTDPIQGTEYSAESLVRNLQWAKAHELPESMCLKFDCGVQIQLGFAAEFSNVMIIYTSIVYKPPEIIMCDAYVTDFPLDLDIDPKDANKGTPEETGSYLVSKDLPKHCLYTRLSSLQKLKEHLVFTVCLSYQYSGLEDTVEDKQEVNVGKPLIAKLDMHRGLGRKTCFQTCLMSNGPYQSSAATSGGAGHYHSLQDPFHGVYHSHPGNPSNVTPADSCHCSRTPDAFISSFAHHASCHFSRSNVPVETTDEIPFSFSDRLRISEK

T2: p76 T6Ig-m (E313A/E316A) (human, UniProt Q9UDY8 150-824, Avi-tag biotinylated in vivo by co-expressed BirA)
T2 construct: domain: p76 cleavage fragment
T2 sequence (looked up): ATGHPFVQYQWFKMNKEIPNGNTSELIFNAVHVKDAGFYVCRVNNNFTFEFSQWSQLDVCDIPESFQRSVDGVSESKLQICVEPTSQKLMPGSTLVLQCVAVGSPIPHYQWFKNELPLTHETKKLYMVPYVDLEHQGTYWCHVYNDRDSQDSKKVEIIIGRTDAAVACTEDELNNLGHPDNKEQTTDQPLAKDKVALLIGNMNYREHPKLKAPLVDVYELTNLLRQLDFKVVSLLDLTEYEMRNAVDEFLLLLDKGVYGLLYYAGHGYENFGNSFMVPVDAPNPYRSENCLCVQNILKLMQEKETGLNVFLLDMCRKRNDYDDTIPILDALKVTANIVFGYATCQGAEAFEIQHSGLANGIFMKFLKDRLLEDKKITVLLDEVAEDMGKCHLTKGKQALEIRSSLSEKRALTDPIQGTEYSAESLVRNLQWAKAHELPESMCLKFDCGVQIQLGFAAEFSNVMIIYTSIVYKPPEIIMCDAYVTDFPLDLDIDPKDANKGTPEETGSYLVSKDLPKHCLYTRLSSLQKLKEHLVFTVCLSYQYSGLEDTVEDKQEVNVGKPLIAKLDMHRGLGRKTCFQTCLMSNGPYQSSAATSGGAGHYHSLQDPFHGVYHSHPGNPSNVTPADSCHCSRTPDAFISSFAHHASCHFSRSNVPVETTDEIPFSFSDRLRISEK

T3: p76 T6Ig/C-m (E313A/E316A and E806A) (human, UniProt Q9UDY8 150-824, Avi-tag biotinylated in vivo by co-expressed BirA)
T3 construct: domain: p76 cleavage fragment
T3 sequence (looked up): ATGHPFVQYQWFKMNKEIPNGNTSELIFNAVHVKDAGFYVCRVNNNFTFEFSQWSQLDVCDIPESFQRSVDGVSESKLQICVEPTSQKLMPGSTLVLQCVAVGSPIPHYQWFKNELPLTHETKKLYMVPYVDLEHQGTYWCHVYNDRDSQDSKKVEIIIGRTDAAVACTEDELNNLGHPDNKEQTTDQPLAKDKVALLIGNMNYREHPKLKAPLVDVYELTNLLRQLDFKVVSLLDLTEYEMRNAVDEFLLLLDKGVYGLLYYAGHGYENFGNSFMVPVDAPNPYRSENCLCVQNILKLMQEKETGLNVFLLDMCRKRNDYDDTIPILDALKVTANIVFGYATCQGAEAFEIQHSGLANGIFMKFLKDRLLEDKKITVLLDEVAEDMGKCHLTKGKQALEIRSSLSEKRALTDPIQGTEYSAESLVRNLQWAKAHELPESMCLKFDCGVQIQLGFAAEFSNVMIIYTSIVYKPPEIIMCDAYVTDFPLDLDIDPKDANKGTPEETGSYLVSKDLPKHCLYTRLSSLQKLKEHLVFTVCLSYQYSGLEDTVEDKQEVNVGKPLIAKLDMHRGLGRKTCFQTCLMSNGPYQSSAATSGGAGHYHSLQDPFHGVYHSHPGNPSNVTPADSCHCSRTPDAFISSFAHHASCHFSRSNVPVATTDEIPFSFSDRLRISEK


Columns and labels:
[1] = molecular target: T1, p76 fragment of MALT1 (Avi-tagged …); assay: bio-IP from HEK293T cells, anti-BCL10 immunoblot
Description: (§1) FIG. 5: p76 activates NFκB via TRAF6. […] Panel B) TRAF6 mediates NFκB signaling by p76. Top: NFκB-reporter assays of HEK293T cells transiently expressing MALT1, p76 and mutants or MALT1-C. Bottom: MALT1, p76 or MALT1-C, transiently expressed in HEK293T cells, were purified via bio-IPs and immunoblotted with anti-MALT1 (to show equal expression), anti-TRAF6 and anti-BCL10. Panel C) p76 induces polyubiquitination of IKKγ. Immunoblot analysis of bio-IP and IKKγ-IP of 293T cells transfected with pcD-F-IKKγ and pcd-HA-Ub in combination with indicated Avi-tagged MALT1 constructs. Panel D) BCL10 is not involved in NFκB signaling by p76. NFκB reporter assays of HEK-293T cells transfected with siRNA duplexes against MALT1, BCL10 or GFP (as control) followed by transient transfection with p76. The expression levels were determined by immunoblot with anti-MALT1 and anti-BCL10. NFκB-dependent luciferase activity […] is shown as fold induction of vector-transfected cells and represents the mean+/−S.D. of three independent experiments.

p76 T6Ig-m (E313A/E316A) = molecular target: T2, p76 T6Ig-m (E313A/E316A); assay: bio-IP from HEK293T cells, anti-TRAF6 immunoblot
Description: as §1
(§2) NFκB activation by MALT1 requires TRAF6 binding via two distinct sites (19), which are both present in the p76 cleavage fragment. Mutation of one TRAF6 binding site, either E313A/E316A (T6Ig-m) or E806A (T6C-m), abolished the potential of p76 to activate NFκB signaling in 293T cells (FIG. 5, Panel B). […] Furthermore, NFκB activation by p76 in 293T cells was associated with increased polyubiquitination of IKKγ (FIG. 5, Panel C).

[2] = molecular target: T3, p76 T6Ig/C-m (E313A/E316A and E806A); assay: bio-IP from HEK293T cells, anti-TRAF6 immunoblot
Description: as §1, §2

binding result [1]	binding result (p76 T6Ig-m (E313A/E316A))	binding result [2]	Binder
no binding			BCL10 (other, UniProt O95999 1-233, looked up, Co-precipitated from lysates of human cell lines) MEPTAPSLTEEDLTEVKKDALENLRVYLCEKIIAERHFDHLRAKKILSREDTEEISCRTSSRKRAGKLLDYLQENPKGLDTLVESIRREKTQNFLIQKITDEVLKLRNIKLEHLKGLKCSSCEPFPDGATNNLSRSNSDESNFSEKLRASTVMYHPEGESSTTPFFSTNSSLNLPVLEVGRTENTIFSSTTLPRPGDPGAPPLPPDLQLEEEGTCANSSEMFLPLRSRTVSRQ
	binds	no binding	TRAF6 (other, UniProt Q9Y4K3 1-522, looked up, Co-precipitated from lysates of human cell lines) MSLLNCENSCGSSQSESDCCVAMASSCSAVTKDDSVGGTASTGNLSSSFMEEIQGYDVEFDPPLESKYECPICLMALREAVQTPCGHRFCKACIIKSIRDAGHKCPVDNEILLENQLFPDNFAKREILSLMVKCPNEGCLHKMELRHLEDHQAHCEFALMDCPQCQRPFQKFHINIHILKDCPRRQVSCDNCAASMAFEDKEIHDQNCPLANVICEYCNTILIREQMPNHYDLDCPTAPIPCTFSTFGCHEKMQRNHLARHLQENTQSHMRMLAQAVHSLSVIPDSGYISEVRNFQETIHQLEGRLVRQDHQIRELTAKMETQSMYVSELKRTIRTLEDKVAEIEAQQCNGIYIWKIGNFGMHLKCQEEEKPVVIHSPGFYTGKPGYKLCMRLHLQLPTAQRCANYISLFVHTMQGEYDSHLPWPFQGTIRLTILDQSEAPVRQNHEEIMDAKPELLAFQRPTIPRNPKGFGYVTFMHLEALRQRTFIKDDTLLVRCEVSTRFDMGSLRREGFQPRSTDAGV
